Laboratory results published in PMC8791944, “GLUT3 inhibitor discovery through in silico ligand screening and in vivo validation in eukaryotic expression systems” (Scientific Reports, 2022).
Numbering of substitutions follows the chain as printed. Names may count otherwise.

B1: GLUT3 (Homo sapiens) (protein)
chain: MGTQKVTPALIFAITVATIGSFQFGYNTGVINAPEKIIKEFINKTLTDKGNAPPSEVLLTSLWSLSVAIFSVGGMIGSFSVGLFVNRFGRRNSMLIVNLLAVTGGCFMGLCKVAKSVEMLILGRLVIGLFCGLCTGFVPMYIGEISPTALRGAFGTLNQLGIVVGILVAQIFGLEFILGSEELWPLLLGFTILPAILQSAALPFCPESPRFLLINRKEEENAKQILQRLWGTQDVSQDIQEMKDESARMSQEKQVTVLELFRVSSYRQPIIISIVLQLSQQLSGINAVFYYSTGIFKDAGVQEPIYATIGAGVVNTIFTVVSLFLVERAGRRTLHMIGLGGMAFCSTLMTVSLLLKDNYNGMSFVCIGAILVFVAFFEIGPGPIPWFIVAELFSQGPRPAAMAVAGCSNWTSNFLVGLLFPSAAHYLGAYVFIIFTGFLITFLAFTFFKVPETRGRTFEDITRAFEGQAHGADRSGKDGVMEMNSIEPAKETTTNV
notes: expressed in transfected cells; host or cells: Saccharomyces cerevisiae hxt0 strain EBY.S7 (fgy1)
B2: GLUT3S66Y (Homo sapiens; S66Y) (protein)
chain: B1 chain with S66Y

What was measured:
[1] = substrate: OC[C@H]1OC(O)[C@H](O)[C@@H](O)[C@@H]1O; assay: cells, lysate or membranes; assay type: cell-based, human; conditions: other: wild-type GLUT3 in hxt^0 cells
From the text: Hexose transporter deficient yeast strains (hxt^0) EBY.VW4000 for expression of GLUT5, EBY.S7 (carrying the fgy1 mutation) for expression of GLUT1-3, and SDY.022 (EBY.S7 Δerg4) for expression of GLUT4 cells, and corresponding plasmids[65],[66],[73] were from the labs of Drs.
The plasmids containing functional constructs of GLUT1-5 were transformed in the corresponding hxt^0 strains[65],[66],[73] (EBY.VW4000 for GLUT5S72Y, EBY.S7 for GLUT1, GLUT2∆loopS_Q455R, GLUT3 and GLUT3S66Y, and SDY.022 for GLUT4) and grown on 2% (w/v) agar plates of the respective media supplemented with 1% (w/v) maltose. An initial culture of ~ 10 ml was started with a few colonies and grown for 2–3 days if the media was SC-uracil with 1% (w/v) maltose (GLUT1, GLUT3, GLUT4) or 1–2 days if the media was YEP with 1% (w/v) maltose and 100 µg/ml geneticin G418 (GLUT2∆loopS_Q455R and GLUT5S72Y). […] Then, cells were transferred in the same media so that OD600nm ~ 0.5 and grown further for 1–2 days.
For transport activity assay, cells in the hexose media were centrifuged (1000×g, 5 min, room temperature), washed once with PBS buffer (10 mM Na2HPO4, 1.8 mM KH2PO4, 2.7 mM KCl, 137 mM NaCl, pH 7.4), and resuspended in PBS buffer at an OD600nm ~ 10; each assay contained 100 µl of this cell solution. […] The radioactivity was determined with a scintillation counter (Tri-carb 2900TR, Perkin Elmer, USA).

[2] = substrate: OC[C@H]1OC(O)[C@H](O)[C@@H](O)[C@@H]1O; assay: cells, lysate or membranes; conditions: other: GLUT3S66Y in hxt^0 cells

| Protein | Km [1] [µM] | Km [2] [µM] |
| --- | --- | --- |
| B1 | 3110 ± 420 | – |
| B2 | – | 1420 ± 170 |
